Where a chain is given by its changes, count along the chain named. Names and notes keep the numbering of the source.
B1: GLS3000 L27bE one-arm antibody (antibody, human IgG1, kappa, L234A L235A, N297A, name in Kabat numbering)
heavy: QVQLVESGGGVVQPGRSLRLSCAASGFTFSNAWMHWVRQAPGKGLEWVAQIKAKSNNYATYYAESVKGRFTISRDDSKNSLYLQMNSLKTEDTAVYYCRYVHYGAYYGVDAWGQGTTVTVSSASTKGPSVFPLAPSSKSTSGGTAALGCLVKDYFPEPVTVSWNSGALTSGVHTFPAVLQSSGLYSLSSVVTVPSSSLGTQTYICNVNHKPSNTKVDKKVEPKSCDKTHTCPPCPAPEAAGGPSVFLFPPKPKDTLMISRTPEVTCVVVDVSHEDPEVKFNWYVDGVEVHNAKTKPREEQYASTYRVVSVLTVLHQDWLNGKEYKCKVSNKALPAPIEKTISKAKGQPREPQVYTLPPSRCELTKNQVSLSCAVKGFYPSDIAVEWESNGQPENNYKTTPPVLDSDGSFFLVSKLTVDKSRWQQGNVFSCSVMHEALHNHYTQKSLSLSPDYKDDDDK
chain: EPKSSDKTHTCPPCPAPELLGGPSVFLFPPKPKDTLMISRTPEVTCVVVDVSHEDPEVKFNWYVDGVEVHNAKTKPREEQYNSTYRVVSVLTVLHQDWLNGKEYKCKVSNKALPAPIEKTISKAKGQPREPQVCTLPPSRDELTKNQVSLWCLVKGFYPSDIAVEWESNGQPENNYKTTPPVLDSDGSFFLYSKLTVDKSRWQQGNVFSCSVMHEALHNRYTQKSLSLSP
light: DIVMTQSPLSLPVTPGEPASISCRSSQSEVHSNRNTYLHWYQQKPGQAPRLLIYKVSNRFSGVPDRFSGSGSGTDFTLKISRVEAEDVGVYYCGQGTQVPYTFGQGTKLEIKRTVAAPSVFIFPPSDEQLKSGTASVVCLLNNFYPREAKVQWKVDNALQSGNSQESVTEQDSKDSTYSLSSTLTLSKADYEKHKVYACEVTHQGLSSPVTKSFNRGEC
B2: GLS3000 N28V one-arm antibody (antibody, human IgG1, kappa, L234A L235A, N297A, name in Kabat numbering)
heavy: B1 heavy
chain: B1 chain
light: B1 light with E29L, N33V
B3: GLS3000 N28P one-arm antibody (antibody, human IgG1, kappa, L234A L235A, N297A, name in Kabat numbering)
heavy: B1 heavy
chain: B1 chain
light: B1 light with E29L, N33P
B4: GLS3000 N28Q one-arm antibody (antibody, human IgG1, kappa, L234A L235A, N297A, name in Kabat numbering)
heavy: B1 heavy
chain: B1 chain
light: B1 light with E29L, N33Q
B5: GLS3000 L27bV one-arm antibody (antibody, human IgG1, kappa, L234A L235A, N297A, name in Kabat numbering)
heavy: B1 heavy
chain: B1 chain
light: B1 light with E29V
B6: GLS3000 L27bP one-arm antibody (antibody, human IgG1, kappa, L234A L235A, N297A, name in Kabat numbering)
heavy: B1 heavy
chain: B1 chain
light: B1 light with E29P
B7: GLS3000 N28T one-arm antibody (antibody, human IgG1, kappa, L234A L235A, N297A, name in Kabat numbering)
heavy: B1 heavy
chain: B1 chain
light: B1 light with E29L, N33T
B8: GLS3000 N28M one-arm antibody (antibody, human IgG1, kappa, L234A L235A, N297A, name in Kabat numbering)
heavy: B1 heavy
chain: B1 chain
light: B1 light with E29L, N33M
B9: GLS3000 N28D one-arm antibody (antibody, human IgG1, kappa, L234A L235A, N297A, name in Kabat numbering)
heavy: B1 heavy
chain: B1 chain
light: B1 light with E29L, N33D
B10: GLS3000 L27bY one-arm antibody (antibody, human IgG1, kappa, L234A L235A, N297A, name in Kabat numbering)
heavy: B1 heavy
chain: B1 chain
light: B1 light with E29Y
B11: GLS3000 N28G one-arm antibody (antibody, human IgG1, kappa, L234A L235A, N297A, name in Kabat numbering)
heavy: B1 heavy
chain: B1 chain
light: B1 light with E29L, N33G
B12: GLS3000 L33M one-arm antibody (antibody, human IgG1, kappa, L234A L235A, N297A, name in Kabat numbering)
heavy: B1 heavy
chain: B1 chain
light: B1 light with E29L, L38M
B13: GLS3000 L27bF one-arm antibody (antibody, human IgG1, kappa, L234A L235A, N297A, name in Kabat numbering)
heavy: B1 heavy
chain: B1 chain
light: B1 light with E29F
B14: GLS3000 L33D one-arm antibody (antibody, human IgG1, kappa, L234A L235A, N297A, name in Kabat numbering)
heavy: B1 heavy
chain: B1 chain
light: B1 light with E29L, L38D
B15: GLS3000 L27bS one-arm antibody (antibody, human IgG1, kappa, L234A L235A, N297A, name in Kabat numbering)
heavy: B1 heavy
chain: B1 chain
light: B1 light with E29S
B16: GLS3000 L33A one-arm antibody (antibody, human IgG1, kappa, L234A L235A, N297A, name in Kabat numbering)
heavy: B1 heavy
chain: B1 chain
light: B1 light with E29L, L38A
B17: GLS3000 L27bM one-arm antibody (antibody, human IgG1, kappa, L234A L235A, N297A, name in Kabat numbering)
heavy: B1 heavy
chain: B1 chain
light: B1 light with E29M
B18: GLS3000 N28H one-arm antibody (antibody, human IgG1, kappa, L234A L235A, N297A, name in Kabat numbering)
heavy: B1 heavy
chain: B1 chain
light: B1 light with E29L, N33H
B19: GLS3000 L33F one-arm antibody (antibody, human IgG1, kappa, L234A L235A, N297A, name in Kabat numbering)
heavy: B1 heavy
chain: B1 chain
light: B1 light with E29L, L38F
B20: GLS3000 L27bW one-arm antibody (antibody, human IgG1, kappa, L234A L235A, N297A, name in Kabat numbering)
heavy: B1 heavy
chain: B1 chain
light: B1 light with E29W
B21: GLS3000 N28I one-arm antibody (antibody, human IgG1, kappa, L234A L235A, N297A, name in Kabat numbering)
heavy: B1 heavy
chain: B1 chain
light: B1 light with E29L, N33I
B22: GLS3000 L27bI one-arm antibody (antibody, human IgG1, kappa, L234A L235A, N297A, name in Kabat numbering)
heavy: B1 heavy
chain: B1 chain
light: B1 light with E29I
B23: GLS3000 L33P one-arm antibody (antibody, human IgG1, kappa, L234A L235A, N297A, name in Kabat numbering)
heavy: B1 heavy
chain: B1 chain
light: B1 light with E29L, L38P
B24: GLS3000 L33I one-arm antibody (antibody, human IgG1, kappa, L234A L235A, N297A, name in Kabat numbering)
heavy: B1 heavy
chain: B1 chain
light: B1 light with E29L, L38I
B25: GLS3000 N28E one-arm antibody (antibody, human IgG1, kappa, L234A L235A, N297A, name in Kabat numbering)
heavy: B1 heavy
chain: B1 chain
light: B1 light with E29L, N33E
B26: GLS3000 L33V one-arm antibody (antibody, human IgG1, kappa, L234A L235A, N297A, name in Kabat numbering)
heavy: B1 heavy
chain: B1 chain
light: B1 light with E29L, L38V
B27: GLS3000 L33E one-arm antibody (antibody, human IgG1, kappa, L234A L235A, N297A, name in Kabat numbering)
heavy: B1 heavy
chain: B1 chain
light: B1 light with E29L, L38E
B28: GLS3000 N28F one-arm antibody (antibody, human IgG1, kappa, L234A L235A, N297A, name in Kabat numbering)
heavy: B1 heavy
chain: B1 chain
light: B1 light with E29L, N33F
B29: GLS3000 N28K one-arm antibody (antibody, human IgG1, kappa, L234A L235A, N297A, name in Kabat numbering)
heavy: B1 heavy
chain: B1 chain
light: B1 light with E29L, N33K
B30: GLS3000 N28A one-arm antibody (antibody, human IgG1, kappa, L234A L235A, N297A, name in Kabat numbering)
heavy: B1 heavy
chain: B1 chain
light: B1 light with E29L, N33A
B31: GLS3000 N28S one-arm antibody (antibody, human IgG1, kappa, L234A L235A, N297A, name in Kabat numbering)
heavy: B1 heavy
chain: B1 chain
light: B1 light with E29L, N33S
B32: GLS3000 N28L one-arm antibody (antibody, human IgG1, kappa, L234A L235A, N297A, name in Kabat numbering)
heavy: B1 heavy
chain: B1 chain
light: B1 light with E29L, N33L

Molecular target: T1, CD3ε homodimer protein (human, UniProt P07766 23-126, limits assumed)
T1 construct: also called CD3 (CD3ε)
T1 sequence (P07766 23-126 limits assumed): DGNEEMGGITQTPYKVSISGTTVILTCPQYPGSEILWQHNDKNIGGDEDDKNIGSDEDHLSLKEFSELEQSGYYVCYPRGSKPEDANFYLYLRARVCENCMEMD
Test: SPR Biacore T200, CD3ε homodimer on chip;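 further: Light-chain single-residue variant antibodies injected over amine-coupled CD3ε homodimer on a CM4 chip at 25 °C, bound amount divided by that of the GLS3000-containing antibody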

Binder	ratio of amount bound vs unaltered GLS3000
B1	0.17
B2	0.36
B3	0.36
B4	0.37
B5	1.12
B6	0.91
B7	0.45
B8	0.39
B9	0.19
B10	0.25
B11	0.46
B12	0.93
B13	0.42
B14	0.17
B15	0.71
B16	0.85

Binder	ratio of amount bound vs unaltered GLS3000
B17	0.71
B18	0.42
B19	0.78
B20	0.26
B21	0.44
B22	1.19
B23	0.3
B24	0.83
B25	0.4
B26	1.05
B27	0.72
B28	0.46
B29	0.44
B30	0.25
B31	0.32
B32	0.39

Reference: patent publication US20260049138A1 (Chugai, published 2026)
